Assay results taken from the nanobody polyreactivity screen of Harvey et al. (2022).

assay: yeast display, Sf9 membrane polyspecificity reagent, FACS + sequencing; frameworks hold sequencing errors
Outline: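 A synthetic nanobody library was expressed on Saccharomyces cerevisiae BJ5465 by galactose induction for 36–48 hours. The library was stained for 1 hour at 4 °C with 10% biotinylated, detergent-solubilized Sf9 membrane reagent and enriched with streptavidin microbeads before FACS. Low and high (top ~1%) gates were set on anti-HA fluorescence for expression and streptavidin fluorescence for reagent binding, and each polyreactivity label reflects the gate of origin.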

| Sequence | polyreactivity (PSR sort gate) |
| --- | --- |
| QVQLVESGGGLVQAGGSLRLSCGASGRIIGYNAMGWYRQAPGKERELVAVISTSGTITYYADSVKGRFTISRDNAKNTVYLQMNRLKPEDTAVYYCAARYYQRANGFGYCGQGTQVTVSS | low polyreactivity |
| QVQLVESGGGLVQAGGSLRLSCGASGRTFRPYAMGWYRQEPGKERELVAAITGGTRTYYADSVKGRFTISRDNAKNTVYLQMNSLKAEDTAVYYCAVGWAGRYDYWGQGTQVTVSS | low polyreactivity |
| QVQLVESGGGLVQAGGSLRLSCGASGSNFWPNTMGWYRPAPGKERELVAGISFGGGSTYFADSVKGRFTISRDNAKNTVYLEMNRQKPEDTAVYYCNADDPGYAGPWYWVKYDYWGKGTQVTVSS | low polyreactivity |
| QVQLVESGGGLVQAGGSLRLSCGASGSTFGTYAMGWYRQAPGKERELVAAISWSGGSTYYADSVKGRFTISRDNAKNTVYLQMNSLNPEDTAVYWGQGTQVTVSS | low polyreactivity |
| QVQLVESGGGLVQAGGSLRLSCGASGSTFWWNAMGWYRQAPGKEREFVAAITARGTSTYYADSVKGRFTISRDNAKNTVYLQMNRLKPEDTAVYYCNTRLYGRYYSWYDYWGQGTQVTVSS | high polyreactivity |
| QVQLVESGGGLVQAGGSLRLSCGATGSIFKTYAMGWYRQAPGKERELVAAISQRGGSTYYADSVKGRFTISRDNAKNTVYLQMNSLKPEDTAVYYCAARYAYQSYLYRFDYWGQGTQVTVSS | high polyreactivity |
| QVQLVESGGGLVQAGGSLRLSCGAYGRTFRLYAMGWYRQAPAKERELVAAITRGGRTTYADSVKGRFTSSRDNAQNTVYLQMNSLKPEDTAVYYCAARYVERQTDYYYWGQGTQVTVSS | low polyreactivity |
| QVQLVESGGGLVQAGGSLRLSCGGSGNSFNSYALGWYRQAPGKEREFVAAISGSGSSTYYADSVMGRFTISRDNAKNTVYLQINSLKPEDTAVYYCAVPYYKRYIWSNRDYWGQGTQVTVSS | high polyreactivity |
| QVQLVESGGGLVQAGGSLRLSCGGSGRIFYSNAMGWYRQAPGKERELFAAIRYSGVRTYYADSLKGRFTISLDNEKNTVYLQMNSLNPEYTEVYYCNVYSRTHYQTYTDDYWGQGTQVNVSS | high polyreactivity |
| QVQLVESGGGLVQAGGSLRLSCGSSGSIFKTNAMGWYRQAPGKERELVAANTWRGGSTYYADSVKGRFTNSRDNAKNTVYLQRNSLKPEDTAVYYCAARQYYGAASYRYYYWGQGTQVTVSS | high polyreactivity |
| QVQLVESGGGLVQAGGSLRLSCHASGRIIVPYVMGWYRQAPGKERELVASISDSDTSTYYADSVKGRFTMSRDNAKNTVYLQMNSLKPEDTAVYYCNVDFWGQGTQVTVSS | low polyreactivity |
| QVQLVESGGGLVQAGGSLRLSCPASGFIFRRYVMGWYRQSPGKERELVAAISKSAVNTYYADSVKGRFTISRDNAKNTVYLQMNSLIPEDTEVYYCNKYGYKGGVGYDYWGQGTQVTVSS | high polyreactivity |
| QVQLVESGGGLVQAGGSLRLSCPASGFILQYNAMGWYRQAPGKERELVAAITRSGVSTHYADSVKGRFTISRDNAKNTVYLQMNSLKPEDTAVYYCARTGHSLYSRYYYWGQGTQVTVSS | low polyreactivity |
| QVQLVESGGGLVQAGGSLRLSCPASGFILYPYAMGWYRQAPGKERELVAAITSRGGRTYYADSVKGRFTISRDNAKNTVYLQMNSLKPEDTAVYYCAAKRTSYYAPLKYYSWGQGTQVTVSS | high polyreactivity |
| QVQLVESGGGLVQAGGSLRLSCPASGFTFGRYGMGWYRQAPGKERELVAGITWSGGSTSYADSVKGRFTISRDNAKNTVYLQMYSLIPEDTAVYYCATRARYTRVHGRRYAYDYWGQGTQVTVSS | high polyreactivity |
| QVQLVESGGGLVQAGGSLRLSCPASGFTFYRYAMGWYRQAPGKERELVASISWRGGNTYYADSVKGRFTISRDNEKNTVYLQMNSLKPEDTAVYYCAARGGVLKGYYYWGQGTQVTVSS | high polyreactivity |
| QVQLVESGGGLVQAGGSLRLSCPASGIIFYRYSMGWKRQAPGKERQFVAAISRGGGSTYYADSVKGRFTISRDNAKNTFYLQMNSLKPEDTAVYYCNARDTRVTVDQYSIKRMDYWGKGTQVTVSS | high polyreactivity |
| QVQLVESGGGLVQAGGSLRLSCPASGITFIYYAMGWYRQAPGKEREFVAAINYRGTSTYYADSVKGRFTISRDNPKNTVYLQMNSLKPEDTAVYYCAAGPRRTWYRSLGYSFYKYYYWGQGTQVTVSS | high polyreactivity |
| QVQLVESGGGLVQAGGSLRLSCPASGLTFGGNAMGWYRQEPGKERELVAAISWSDDTTDYADSVKGRFTISRDNAKNTVYLQMNSLKPEDTAVYYCAARLPFEHVDYWGQGTQVTVSS | low polyreactivity |
| QVQLVESGGGLVQAGGSLRLSCPASGNIFVYYAMGWSRQAHGKERELVAAITSDVSTYYADSVKGRFTISRDNAKNTVYLQMNSLKPEDTAVYYCATTGYGSYVIYWGQGTQVTVSS | low polyreactivity |
| QVQLVESGGGLVQAGGSLRLSCPASGRILPRNAMGWYRQAPGKERELVAGISSDGSTNYADSVKGRFTISRDNAKNTVYLQMNSLKPEDTAVYYCAADGVYDPNLYGYWGQGTQVTVSS | low polyreactivity |

| Sequence | polyreactivity (PSR sort gate) |
| --- | --- |
| QVQLVESGGGLVQAGGSLRLSCPASGSIFDLYAMGWYRQAPGKERELVASIRYSGGRTYYADSVKGRFTISRDNAKNTVYLQMNSLKPEDTAVYYCNRDGGYTFIMDYWGQGNQVTVSS | low polyreactivity |
| QVQLVESGGGLVQAGGSLRLSCPASGSIFPYYAMGCYRQAPGKERELVAAISSGDITDYADSVKGRFTISRDNAKNTVYLQMNSLKPEDTAVYYCAAATLSLYWPYLFRGSDYDYWGQGSQVTVSS | low polyreactivity |
| QVQLVESGGGLVQAGGSLRLSCPASGSIFYYYAMGWYRQAPGKERELVAAIRGSGSSTYYADSVKGRFTISRDNAKNTVYLQMNSLKPEDTAVYYCAAYDLLVGLQYDYWGQGTQVTVSS | low polyreactivity |
| QVQLVESGGGLVQAGGSLRLSCPASGSNFGVYAMAWYRQAPGKERELVAAITSSGGSTYYADSVKGRFTISRDNAKNTVYFQMNSLKPEDTAVYYCSKDSFSHSHYTRYGYWGQGSQVTVSS | low polyreactivity |
| QVQLVESGGGLVQAGGSLRLSCPASGSTFMKYDKGWYRQAPGIVRELVAAISWDGGSTYYADSVKGRFTISRDNAKNTVYLQMNSLKPEDTAVYYCNADYDVYLTIWYYYCEFDYWGQGSQVTVSS | low polyreactivity |
| QVQLVESGGGLVQAGGSLRLSCPASGSTFSPNAIGWSRQAPGKERELLDAINYSSGSTYYADSVKGRFTISRDNAKNSVYLQMNSLKPEDTAVYYCAVRSYWSSLWTLGDYWGQGTQVTVSS | low polyreactivity |
| QVQLVESGGGLVQAGGSLRLSCPASGSTFSWYAMGWSRQEPGKERELVAAISYSGGTYYADSVKGRFTISRDNAKNTVYLQKNSLKPEDTAVYYCAAQRTRYGYDYWGQGTQVTVSS | high polyreactivity |
| QVQLVESGGGLVQAGGSLRLSCPASGSTIFGTAMGWYRQAPGKDWELVAASSYSGDSTYYADSVKGRFTISRDNAKHTVYVEMISLKPEDTAVYYCAAGFVIKYDYWGQGTQVTVSS | low polyreactivity |
| QVQLVESGGGLVQAGGSLRLSCPASGSTISGNTMGWYRHDPGKERELVAAISFRSGRTYYADSVKGRFTISRDNAKNTGYLQMNSLIPEDTAVYYCNAEIYTYRTGRGYSRMDYWGQGSQVTVSS | high polyreactivity |
| QVQLVESGGGLVQAGGSLRLSCPASGYIFYYNAMGWYRQAPGKERELVAAITSDDSTYYADSVKGRFTISRDNANNTVYLQMNSLKQEDTAVYYCNSVRYGHWYDYWGQGTQVTVSS | low polyreactivity |
| QVQLVESGGGLVQAGGSLRLSCPDSGLIFVANAMGWYIQAPGKERELVAAISRSGGITYYADSVKGRFTISRDNATNTVYLKMNSLKPADTEVYYCAKTLPSNGHYDYWGQGTQVTVSS | low polyreactivity |
| QVQLVESGGGLVQAGGSLRLSCPTSGRNLRWYAMVWYIQAPGKERELVAAIKRSGDTTYYADSVKGRFTISRDNAKNTVYLQMNSLKPEHTAVYYCAARYTRKYDYWGQGTQVTVSS | high polyreactivity |
| QVQLVESGGGLVQAGGSLRLSCSASGFIFTLYAMGWYRQAHGKERELVASIRGSGVNTYYADSVKGRFTISRDNAKNTDYLQMNSLKPEDTAVYYCAARTYRRPYYSWGQGTQVTVSS | high polyreactivity |
| QVQLVESGGGLVQAGGSLRLSCSASGFIFYGYTMGWYRQAPGKERELVAAITFSGGRTYYADSVKGRFTISRDHAKNTVYLQMNSLKPEDSAVYYCAALHYGRYRMDYWGQGTQVTVSS | high polyreactivity |
| QVQLVESGGGLVQAGGSLRLSCSASGFILSYYARGWYRQSPGKERELVAAISRAGSTNYADSVKGRFTISRDNAKNTVYLQMNSLKPEDTAVYYCNKRQYSARVSRSYDYWGQGTQVTVSS | high polyreactivity |
| QVQLVESGGGLVQAGGSLRLSCSASGFTFDYYAMGWYRQAPGKERELVAAITWNTVSTYYADSVKGRFTISRDNAKNTVYLQMNSLKPEDTAVYYCAADTQWLYRYDYWGQGTQVTVSS | low polyreactivity |
| QVQLVESGGGLVQAGGSLRLSCSASGFTFYRYAMGWYRQAPGKERELVAAITSGGSTYYADSVKGRFTISRDNAKNTVYLQMNSLKPEDTAVYYCAAQKARVFRGAWTRYEYWGQGTQVTVSS | high polyreactivity |
| QVQLVESGGGLVQAGGSLRLSCSASGFTLGFNAMGCYRQAPGKEREFVASITYRGGSTYYADSVKGRFTISRDNAKNTVYLQMNSLKPEDTAVYYCAARHRSSYSLYWGQGTQVTVSS | high polyreactivity |
| QVQLVESGGGLVQAGGSLRLSCSASGIIFRSYAMGWYRQAPGKERELVAAITGGGTTNYADSVKGRFTISRDNAKNTVYLQMNRLKPEDTAVYYCNAGLDWFWFNEMDYWGQGTQVTVSS | low polyreactivity |
| QVQLVESGGGLVQAGGSLRLSCSASGIILPVYAMGWYRQAPGKEMELVAAISRDGGSTYYSDSVKGLFTISRDNAKNNVYLLMNSLKPEDTAVYYCNAVWRGIYFNGKFDYWGQGTQVTVSS | high polyreactivity |
